Reference: the nanobody polyreactivity screen of Harvey et al. (2022)

Experiment: yeast display, Sf9 membrane polyspecificity reagent, FACS + sequencing; frameworks hold sequencing errors
In short: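 A nanobody's polyreactivity label depends on the gate it was sorted from. Yeast display cells were stained with 10% biotinylated, detergent-solubilized Sf9 membrane reagent for 1 hour at 4 °C, enriched on streptavidin microbeads and sorted by FACS. The low and high (top ~1%) gates were set on anti-HA fluorescence for expression and streptavidin fluorescence for reagent binding.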

QVQLVESGGGLVQAGGSLRLSCAASGLIIPFYAMGWYRQAPGKERELVAAISWSAGSTYYADSVKGRFTISRDNAKNTVYLQMNCLKPEDTAVYYCAATAYYYYDYDYWGQGTQVTVSS
polyreactivity (PSR sort gate): low polyreactivity

QVQLVESGGGLVQAGGSLRLSCAASGNTFSSNAMGWYRQAPGKERELVAGITKSGGRTYYADSVKGRFTISRDNAKNTVYLQMNSLKPEDTAVYYCNRRAGPYSIPYYYWGQGTQVTVSS
polyreactivity (PSR sort gate): high polyreactivity

QVQLVQSGGGLVQAGGSLRLSCAAYGSTFVRYVKGWYRQAPGKERELVAAISRRGGSTYYADSVKGRFRISRDNAKNTVFLQMNSLKPEDTAVSYCARTVGYRTLLESDSWGQGTQVTVSS
polyreactivity (PSR sort gate): high polyreactivity

QVQLVESGGGLVQAGGSLRLSCAASGFTFAPYDMGWYRQAPGKERELVATISWSGARTYYADSVKGRFTISRDNAKNTVYLQMNSLKAEDTAVYYCAAAYSSSKSSGNYYYWGQGTQVTVSS
polyreactivity (PSR sort gate): high polyreactivity

QVQLLESGGGLVQAGGSLRLSCAASGRTFTTYTMGWYRQAPGKERELVAAIRSGGRTYYADSVKGRFTISRDNAKNTVYLQMNSLKPEDTAVYYCNARDCVRNVYAYAGRQYDYWGQGTQVTVSS
polyreactivity (PSR sort gate): low polyreactivity

QVQLVESGAGLVQAGGSLRLSCAASGFAFYLYAMGWYRQAPGIERELVAAISSRGGNTYYADTVKGRFTISRDYAKNTVYLPMISLKPEDNAVYYCAAEFWNWYGDYDYWGQGTQVTVSS
polyreactivity (PSR sort gate): high polyreactivity

QVQLVESGGGLVQAGGSLRLSCAASGFIFHLYGMGWYRQATGKERELVAAISSGGRTYYADSVKGRFTISRDNAKNTVYLQMNSLKPEDTAVYYCAVYVAYLYSYYYWGQGTQVTVSS
polyreactivity (PSR sort gate): low polyreactivity

QVQLVESGGGLVQAGGSLRLSCAASGFIFTLYAMGWYRQAPGKESELVASISSGGSTNYADSVKGRFTISRDNAKNTVYFQMNSLKPEDTAVYYCAAYYYFKSDRFSGRYGRYYWGQGTQVTVSS
polyreactivity (PSR sort gate): high polyreactivity

QVQLVESGGGLVQAGGSLRLSCAASGRIFFTNAMGWYTQAPGKERELVAAISKSGARTYYADSVKGRFTISRDNAKNTVYLLMNSLKPEDTAVYYCAADVCVYGYDYWGQGTQVTVSS
polyreactivity (PSR sort gate): high polyreactivity

QVQLVESGGGLVQAGGSLRLSCAASGRIFGRYAMGWYRQAPGKERELVAVISARGARTYYADSVKGRFTISRDNAKNTVYLQRNSLKPEDTAVYYCAVDQYATDDYWGQGTQVTVSS
polyreactivity (PSR sort gate): high polyreactivity

QVQLVESGGGLVQAGGSLRLSCAASGSTFQSYAMGWYRQAPGKERELVAAISFSGGSTYYADSVKGRFTNSRDNSKNTVYLQMNSLIPEDTAVYYCAKRGWVYFHGYDYWGQGTQVTVSS
polyreactivity (PSR sort gate): low polyreactivity

QDQLVESGGGLVQAGASLRLSCAASGFTFHNKFKGWYRQAPGKERELVATISKSGGSTYYADSVKGRFTISRDYAKNTVNLQMNSLKPEDTAVYYCARRYRDYGRYGYWGQGTQVTVSS
polyreactivity (PSR sort gate): high polyreactivity

QVQLVESGGGLVQAGGSLRLSCAASGRIFGDYAMGWYRQAPGKERELVAAINSSGTSTNYADSVKGRFTISRDNAKNTVYLQMNSLKPEDTAVYYCNAEGTYRPDYDSWGQGTQVTVSS
polyreactivity (PSR sort gate): low polyreactivity

QVKLVESGGGLVQAGGSLRLSCAASGSIFSRNTMGWSRQEPGKERELVAGISSSGSRTYYADSVKGRFTISRDNAKNTVYLQMNSLKPEDTAVYYCAKAWPDHWYSRYDYWGQGTQLTVSS
polyreactivity (PSR sort gate): low polyreactivity

QVQLVESGGGLVQAGGSLRLSCSASGSIFDAYAMGWYRQAPGKERELVAAITTGGGSTYYADSVKGRFTISRDNAKNTVYLQMNSLKPEDTAVYYCAAEGFATDGWWYYKAYDDWGQGTQVTVSS
polyreactivity (PSR sort gate): low polyreactivity

QVQLVESGGGLVQAGASLRLSCAASGCTFVVNAMGWYRQAPGKERELVAAITDGSSTNYADSVKGRFTISRDNAKYTVYLQMTRLIRQDTAVYFCAAVPYIDLDDINVEHPQYGYWGQGTQVTVSS
polyreactivity (PSR sort gate): low polyreactivity

QVQLVESGGGLVQARGSLRLSCAASGFNFRSYAMASYRQAPGKERELVAAINSRAGNTYYADSVKGRFTISRDNSKNTVYLQMNSLKPEDTAVYYCNAVRHTYGYYSCGQGTQVTVSS
polyreactivity (PSR sort gate): high polyreactivity

QVQLVESGGGLVQAGGSLRLSCAASGSTFVLYANGWYRQAPGKERELVAASTRRGGDTYYADSVKGRFTISRDNATNTVYLQMNSLKPEDTAVDYCATDYTTYGRYYYWGQGTQVTVSS
polyreactivity (PSR sort gate): low polyreactivity

QVQHVESGGGLVQAGGSLRLSCAASGIIFKLYAMGWYRQAPGKEREFVATITKTGGRTYYADSVKGRFTISRDNAKNTVYLQMNSLKPEDTAVYYCAARRVNGKMYYWGQGTQVTVSS
polyreactivity (PSR sort gate): high polyreactivity

QVQLVESGGGFVQAGGSLGLSCAASGSTFQFYALGWYRQAPGKERELVAVITSGDDTNYADSVKGRFTISRDNATYTVYLQMNSLKPEDTAVYYCAVEYILVYTRVRSYWFDYWGQGTQVTVSS
polyreactivity (PSR sort gate): low polyreactivity

QVQLVESGGGLVQAGGSLRLSCAASGSIFRPYTMGWYRQAPGKEREFVAAITWSDGSTYYADSVKGRFTISRDNAKNTVYLQINSLKPLDTAVYDCAADLHDGYYYSFWYGYDYWGQGTQVTVSS
polyreactivity (PSR sort gate): low polyreactivity

QVQLVESGGGLVQAGGSLRLSCAASGRIFKWYAMGWYRQAPGKERELVAAISRSGGTTYYADSVKGRFTISRDNAKNTVYLQMNSLKPEDTAVYYCATRNIYFSSVDYWGQGTQVTVSS
polyreactivity (PSR sort gate): high polyreactivity

QVQLVESGGGLVQAGGSLRLSCAASGRIFWANAMGWYRQAPGKERELVAAISYSGVSTYYADSVKGRFTISRDNAKNTVYLQMNSLKPADTAVYYCAADRYRKYYYWGQGTQVTVSS
polyreactivity (PSR sort gate): high polyreactivity

QVQLVESGGGLVQAGGSLRLSCAASGTFYKYSMGWYRQAPGKERELVAAISWRGGRTYADSVKGRFTISRDNAKNTVYLQMNSLKPEDTAVYYCNKRFYPEHYYWGQGTQVTVSS
polyreactivity (PSR sort gate): high polyreactivity

QVQLVESGGGLVQAGGSLRLSCAASGRTFVVYAMGWYRQAPGKERELVAAISYSGGSTYYADSVKGRFTISRDNAKNTVYLQMNSLKPEDTAVYYCAAVHLGYYHIYGLGYWGQGTQVTVSS
polyreactivity (PSR sort gate): high polyreactivity

QVQLVESGRGLVQAGGSLRLSCAASGRTFARYAIGWYRPAPGKERELVATIRRVGSTNYADSVNGRFTISRDNAKNTVYLQMNSLKPEDTAVYYCAARSLRYGRGMYYWGQGTQVTVSS
polyreactivity (PSR sort gate): high polyreactivity

QVQLVESGGGLVQAGGSLRLSCAASGRIFTKYAMGWYRQAPGKERELVAAISGSGGPTYYADSVKGRFTISRDNAKNTVYLQINSLKPEDTAVYYCGVPEIFDPKYQNDYWGQGTQVTVSS
polyreactivity (PSR sort gate): low polyreactivity

QVQLVESGGGLVQAGGSLRLSCAASGRTFTSNAMGWYRQAPGKERELVAAITQSGGSTYYADSVKGRFTISRDNAKNTVYLQMNSLKPEDTAVYYCNAETTGRTEYNYWGQGTQVTVSS
polyreactivity (PSR sort gate): low polyreactivity

QVQLVESGGGLVQAGGSLRLSCAASGSIFFYYAMGWYRQAPGKERELVAAISYSDGTTYYADSVKGRFTISRDNAKNTVYLQMNSLKPEDTAVYYCAADLWVGLVSLWDGYVEYDYWGQGTQVTVSS
polyreactivity (PSR sort gate): low polyreactivity

QVQLVESGGGLVQAGGSLRLSCAASGRIFGVNAMGWYRQAPGNERELVAHIRSSGASTYYADSVKGRFTISRDNAKNTVYLQMNSLKPEDTAVYYCARDYFVDGPGYDYWGQGTQVTVSS
polyreactivity (PSR sort gate): low polyreactivity

QVQLVESGGGLVQAGGSLRLSCAASGSTFDPKAMGWYRQAPGKERELVAAISYTGGRTYYADSVKGRFTISRDNAKNTVYLQMNSLKPEDTAVYYCAVLVVGSTTQDEPYFSGVEHDYWGQGTQVTVSS
polyreactivity (PSR sort gate): low polyreactivity

HVQIVESGGGLVQAGGSLRLSCAASGRIFVPYVMGWYRQAPGKERELVASISDSDTSTYYADSVKGRFTISRDNAKNTVYLQINSLKPEDTAVYYCNVDNWGQGTQVTVSS
polyreactivity (PSR sort gate): low polyreactivity

QVQLVESGGGLVQAGGSLRLSCAASGSIFGRYAMGWSRQAPGKERELVAAISRGGSTNYADSVKGRFTISRDNAKNTVYLQMNSLKPEDTAVYYCNRKPYYVSSTRYDYWGQGTQVTVAS
polyreactivity (PSR sort gate): high polyreactivity

QVQLVESGGGLVQAGGSLRLSCAASGLTFGYYAMVWYRQAPGKERELVAAINRSGNTNYADSVKGRFTISRDNAKNTVYLQMNCLKPEDTAVYYCAKRIWSILSPYKSSYGYDYWGQGSQVTVSS
polyreactivity (PSR sort gate): low polyreactivity

QVQLVESGGGLVQAGGSLRLSCAASGRTFLWNAMGWYRQAPGKERELVAAISISGGNTNYADSVKGRFTISRDNAKNTVYLQINSLKPEDTAVYYCNADPRAEPGDWSYEMDYWGQGTQVTVSS
polyreactivity (PSR sort gate): low polyreactivity

QVQPVESGGGLVQAGGSLRLSCAASGIIFISYDMGWYRQAPGKERELVARINWDGGSTYYADSVKGRFTISRDNAKNTVYLQMNSLKPEDTAVYYCAAGFVGTNYPLQGFSYEYWGQGTQVTVSS
polyreactivity (PSR sort gate): low polyreactivity

QVQLVESGGGLVQAGGSLRLSCAASALTFQAYTMGWYRQAPGKERELDAAISRNGGRTYYADSVKGRFTISRDNAKNTVYLQMNSLKPEDTAVYYCAAVHFVVSPGRGDDYWGQCTQVTVSS
polyreactivity (PSR sort gate): high polyreactivity

QVQLVESGGGLVQAGGSLRLSCAASGLTIWRYAMGWYRQAPGKEREFVATISQNGGRTYYADSVKGRFTISRDNAKNTVYLQMQSLKPEDTAVYYCAADDWRWGYDYWGQGTQVTVSS
polyreactivity (PSR sort gate): high polyreactivity

QVQLLESGGGLVQAGGSLRLSCAASGNIFMDYAMGWYRHAPGKERELVAAITSRVDDTYYADSVKGRFTISRDNAKNTVYLQMNSLKPEDTAVYYCAADYSVTLRIGGYYWFYAFDYWGQGTQVTVSS
polyreactivity (PSR sort gate): low polyreactivity

QVQLVESGGGLVQAGGSLRLSCAASGRTFYGYAMAWYRQAPGKERELVAAISVSGGSPYYADSVKGRFTISRDNAKNTVYLQMNSQKPEDTAVYYCIAKYSYRRWYDFDYWGQGTQVTVSS
polyreactivity (PSR sort gate): low polyreactivity

QVHLVESGGGLVQAGGSLRLSCAASGSIFSRNAMGWYRQAPGKERELVAAISRGANTYYADSVKGRFTISRDNAKNTVYLQMNSLKPEDTAVYYCNAGSRSRYEGGYWGQGTQVTVSS
polyreactivity (PSR sort gate): high polyreactivity

QVQLVESGGGLVQAGGSLRLSCAASGRILARYAMGWYRQAPGKERELVAAITSRGGSTSYADSVKGRFTISRDNAKNTVYLQMNSLKPEDTAVYYCAKGERSANGGLFAGRHGYWGQGTQVTVSS
polyreactivity (PSR sort gate): low polyreactivity

QVQLVESGGGLVQAGGSLRLSCAASGSTFDYNTMGWYRQAPGTERELVADITWRGASTYYADSVKGRFTISRDNAKNTVYLQMNSLKPEDTAVYYCAADYYSATGSYAYDYWGQGTQVTVSS
polyreactivity (PSR sort gate): low polyreactivity
